# Experimental data: the RNAGym collection of RNA variant scans (doi:10.1093/molbev/msab373)
# B1: Azoarcus group I ribozyme (parent)
# chain: GUGCCUUGCGCCGGGAAACCACGCAAGGGAUGGUGUCAAAUUCGGCGAAACCUAAGCGCCCGCCCGGGCGUAUGGCAACGCCGAGCCAAGCUUCGGCGCCUGCGCCGAUGAAGGUGUAGAGACUAGACGGCACCCACCUAAGGCAAACGCUAUGGUGAAGGCAUAGUCCAGGGAGUGGCGAAAGUCACACAAACCGG
# Variants of: B1
# Experiment: reverse-splicing fitness (ratio to wild type); higher = more active; in vitro selection; Mg2+ level not given
# Method in brief: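 An in vitro group I ribozyme library with randomized positions was T7-transcribed and gel-purified. In triplicate, 10 pmol RNA in EPPS pH 7.5 was reacted with 50 pmoles of a 30-nt RNA substrate for 1 h at 37 °C across several added MgCl2 levels (1–48 mM), then stopped with EDTA. Products were reverse transcribed from a substrate-complementary primer, PCR-amplified and sequenced (HiSeq 4000). Fitness is a variant's read proportion after selection over that before, normalised to wild type.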
row,Variant,reverse-splicing fitness
1,A111G A120C A145G C150U C169A U176A,0.016
2,A111G A120C A145G C150U C169A U176C,0.0149
3,A111G A120C A145G C150U C169A U176G,0.00456
4,A111C C150A C169G,0.0124
5,A111C C150A C169A,0.0113
6,A111C C150A C169U,0.019
7,A111C A145U C150A U176A,0.114
8,A111C A145U C150A U176G,0.0589
9,A111C A145U C150A U176C,0.166
10,A111C A145C U176C,0.372
11,A111C A145C U176G,0.217
12,A111G A120C A145C C150U C169A U176A,0.00824
13,A111G A120C A145C C150U C169A U176C,0.00426
14,A111G A120C A145C C150U C169A U176G,0.00419
15,A111C A145G C150A U176C,0.168
16,A111C A145G C150A U176G,0.058
17,A111C A145G C150A U176A,0.146
18,A111C A145G C169U,0.126
19,A111C A145G C169G,0.0737
20,A111C A145G C169A,0.0355
21,A111C A145U C150A C169G U176A,0.0133
22,A111C A145U C150A C169G U176C,0.0203
23,A111C A145U C150A C169G U176G,0.00765
24,A111G A120C A145G C150G C169G U176A,0.00741

row,Variant,reverse-splicing fitness
1,A111G A120C A145G C150G C169G U176G,0.00503
2,A111G A120C A145G C150G C169G U176C,0.00529
3,A111G A120C A145C C169G U176G,0.00352
4,A111G A120C A145C C169G U176A,0.0167
5,A111G A120C A145C C169G U176C,0.00881
6,A111C A145G C169A U176A,0.0288
7,A111C A145G C169A U176C,0.0307
8,A111C A145G C169A U176G,0.0065
9,A111C C150A C169G U176A,0.016
10,A111C C150A C169G U176G,0.00762
11,A111C C150A C169G U176C,0.0246
12,A111C C169U U176A,0.0264
13,A111C C169U U176G,0.00757
14,A111C C169U U176C,0.0304
15,A111C A145U C150U C169A U176A,0.0122
16,A111C A145U C150U C169A U176C,0.0129
17,A111C A145U C150U C169A U176G,0.00758
18,A111G A120C A145C C150G C169G U176A,0.00746
19,A111G A120C A145C C150G C169G U176C,0.00487
20,A111G A120C A145C C150G C169G U176G,0.0036
21,A111G A120C A145U C150A C169G U176C,0.011
22,A111G A120C A145U C150A C169G U176G,0.00393
23,A111G A120C A145U C150A C169G U176A,0.0144
24,A111G A120C A145C C150A C169A U176A,0.00728

row,Variant,reverse-splicing fitness
1,A111G A120C A145C C150A C169A U176C,0.0045
2,A111G A120C A145C C150A C169A U176G,0.00443
3,A111C A145G C169U U176C,0.0294
4,A111C A145G C169U U176G,0.00717
5,A111C A145G C169U U176A,0.0269
6,A111C A145U C150G C169A U176G,0.007
7,A111C A145U C150G C169A U176C,0.011
8,A111C A145U C150G C169A U176A,0.00872
9,A111C A145G C150U C169U U176A,0.0237
10,A111C A145G C150U C169U U176G,0.00751
11,A111C A145G C150U C169U U176C,0.0254
12,A111G A120C A145G C150G C169G,0.0082
13,A111G A120C A145G C150G C169A,0.00936
14,A111G A120C A145G C150G C169U,0.0255
15,A111C A145U C150U C169U U176A,0.0264
16,A111C A145U C150U C169U U176G,0.00764
17,A111C A145U C150U C169U U176C,0.0241
18,A111G A120C A145G C150G,0.0893
19,A111G A120C A145G C150A,0.166
20,A111G A120C A145G C150U,0.582
21,A111G A120C A145C C150G C169U,0.0377
22,A111G A120C A145C C150G C169G,0.00666
23,A111G A120C A145C C150G C169A,0.00873
24,A111C A145G C150G C169G U176A,0.00954

row,Variant,reverse-splicing fitness
1,A111C A145G C150G C169G U176C,0.0102
2,A111C A145G C150G C169G U176G,0.00555
3,A111C A145G C150G C169U U176C,0.0142
4,A111C A145G C150G C169U U176A,0.0107
5,A111C A145G C150G C169U U176G,0.00713
6,A111G A120C A145C C150G C169U U176A,0.00771
7,A111G A120C A145C C150G C169U U176G,0.0038
8,A111G A120C A145C C150G C169U U176C,0.0127
9,A111C C150U C169A,0.0198
10,A111C C150U C169U,0.0632
11,A111C C150U C169G,0.0354
12,A111G A120C A145C C169A,0.0128
13,A111G A120C A145C C169U,0.223
14,A111G A120C A145C C169G,0.0105
15,A111C A145G C150A C169A U176A,0.0169
16,A111C A145G C150A C169A U176G,0.00852
17,A111C A145G C150A C169A U176C,0.0182
18,A111C A145G C150G C169A U176A,0.0119
19,A111C A145G C150G C169A U176G,0.00766
20,A111C A145G C150G C169A U176C,0.011
21,A111C A145U C150U,0.731
22,A111C A145U C150A,0.286
23,A111C A145U C150G,0.219
24,A111G A120C A145G C150G C169A U176A,0.00955

row,Variant,reverse-splicing fitness
1,A111G A120C A145G C150G C169A U176C,0.0102
2,A111G A120C A145G C150G C169A U176G,0.00623
3,A111C C169A U176A,0.0188
4,A111C C169A U176G,0.00548
5,A111C C169A U176C,0.0285
6,A111C A145U C150G C169G U176A,0.00777
7,A111C A145U C150G C169G U176C,0.00594
8,A111C A145U C150G C169G U176G,0.0067
9,A111C C150U,0.709
10,A111C C150G,0.185
11,A111C C150A,0.303
12,A111C A145U C150A C169U U176G,0.00751
13,A111C A145U C150A C169U U176A,0.0176
14,A111C A145U C150A C169U U176C,0.0154
15,A111C A145U C150A C169A U176G,0.00755
16,A111C A145U C150A C169A U176C,0.0151
17,A111C A145U C150A C169A U176A,0.0138
18,A111C A145U C150G C169U U176A,0.0095
19,A111C A145U C150G C169U U176C,0.0134
20,A111C A145U C150G C169U U176G,0.00683
21,A111G A120C A145C C150A C169G U176G,0.00452
22,A111G A120C A145C C150A C169G U176C,0.00982
23,A111G A120C A145C C150A C169G U176A,0.0185
24,A111G,1.01

row,Variant,reverse-splicing fitness
1,A111C A145G C150U C169U,0.0877
2,A111C A145G C150U C169A,0.0243
3,A111C A145G C150U C169G,0.0511
4,A111C A145U C169U U176A,0.0258
5,A111C A145U C169U U176G,0.00798
6,A111C A145U C169U U176C,0.0282
7,A111C C150U C169U U176G,0.00793
8,A111C C150U C169U U176A,0.0241
9,A111C C150U C169U U176C,0.0245
10,A111G A120C A145G C150A C169U,0.0508
11,A111G A120C A145G C150A C169G,0.0108
12,A111G A120C A145G C150A C169A,0.0114
13,A111G A120C A145G C150U C169G U176C,0.0192
14,A111G A120C A145G C150U C169G U176A,0.0195
15,A111G A120C A145G C150U C169G U176G,0.00469
16,A111G A120C A145C C150A C169A,0.00705
17,A111G A120C A145C C150A C169U,0.0193
18,A111G A120C A145C C150A C169G,0.00815
19,A111G A120C A145C C150U C169G U176G,0.0049
20,A111G A120C A145C C150U C169G U176C,0.00855
21,A111G A120C A145C C150U C169G U176A,0.0186
22,A111C A145G C169G U176A,0.0283
23,A111C A145G C169G U176G,0.00716
24,A111C A145G C169G U176C,0.0392

row,Variant,reverse-splicing fitness
1,A111C A145G C150G C169U,0.0157
2,A111C A145G C150G C169G,0.0116
3,A111C A145G C150G C169A,0.00939
4,A111G A120C A145G C169U U176C,0.0832
5,A111G A120C A145G C169U U176G,0.00613
6,A111G A120C A145G C169U U176A,0.064
7,A111C C150U C169G U176A,0.014
8,A111C C150U C169G U176C,0.0234
9,A111C C150U C169G U176G,0.0072
10,A111G A120C,0.806
11,A111C C150A C169U U176C,0.0184
12,A111C C150A C169U U176G,0.00825
13,A111C C150A C169U U176A,0.0226
14,A111C C150G C169A U176G,0.00532
15,A111C C150G C169A U176C,0.0107
16,A111C C150G C169A U176A,0.00958
17,A111G A120C A145G C150U C169U U176A,0.0456
18,A111G A120C A145G C150U C169U U176G,0.00537
19,A111G A120C A145G C150U C169U U176C,0.0607
20,A111C A145G,0.83
21,A111C A145U,0.839
22,A111C A145U C150U C169G U176A,0.0147
23,A111C A145U C150U C169G U176G,0.00734
